According to IntAct's records for PubMed 25910212:

B1: EF-hand domain-containing protein 1 (Homo sapiens), Q5JVL4 (parent)
chain: MVSNPVHGLPFLPGTSFKDSTKTAFHRSQTLSYRNGYAIVRRPTVGIGGDRLQFNQLSQAELDELASKAPVLTYGQPKQAPPADFIPAHVAFDKKVLKFDAYFQEDVPMSTEEQYRIRQVNIYYYLEDDSMSVIEPVVENSGILQGKLIKRQRLAKNDRGDHYHWKDLNRGINITIYGKTFRVVDCDQFTQVFLESQGIELNPPEKMALDPYTELRKQPLRKYVTPSDFDQLKQFLTFDKQVLRFYAIWDDTDSMYGECRTYIIHYYLMDDTVEIREVHERNDGRDPFPLLMNRQRVPKVLVENAKNFPQCVLEISDQEVLEWYTAKDFIVGKSLTILGRTFFIYDCDPFTRRYYKEKFGITDLPRIDVSKREPPPVKQELPPYNGFGLVEDSAQNCFALIPKAPKKDVIKMLVNDNKVLRYLAVLESPIPEDKDRRFVFSYFLATDMISIFEPPVRNSGIIGGKYLGRTKVVKPYSTVDNPVYYGPSDFFIGAVIEVFGHRFIILDTDEYVLKYMESNAAQYSPEALASIQNHVRKREAPAPEAESKQTEKDPGVQELEALIDTIQKQLKDHSCKDNIREAFQIYDKEASGYVDRDMFFKICESLNVPVDDSLVKELIRMCSHGEGKINYYNFVRAFSN
partner: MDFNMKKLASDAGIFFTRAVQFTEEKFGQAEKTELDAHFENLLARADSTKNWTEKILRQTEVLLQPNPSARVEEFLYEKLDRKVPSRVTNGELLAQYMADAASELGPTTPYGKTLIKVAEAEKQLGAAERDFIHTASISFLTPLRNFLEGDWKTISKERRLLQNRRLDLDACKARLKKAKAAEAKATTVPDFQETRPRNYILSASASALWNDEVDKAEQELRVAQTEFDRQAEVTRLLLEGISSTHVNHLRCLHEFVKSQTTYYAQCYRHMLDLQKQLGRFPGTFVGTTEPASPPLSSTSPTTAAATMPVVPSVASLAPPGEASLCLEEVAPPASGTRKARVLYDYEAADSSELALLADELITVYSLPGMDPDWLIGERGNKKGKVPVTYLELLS
B2: Inactive peptidyl-prolyl cis-trans isomerase FKBP6 (Homo sapiens), O75344 (parent)
chain: MGGSALNQGVLEGDDAPGQSLYERLSQRMLDISGDRGVLKDVIREGAGDLVAPDASVLVKYSGYLEHMDRPFDSNYFRKTPRLMKLGEDITLWGMELGLLSMRRGELARFLFKPNYAYGTLGCPPLIPPNTTVLFEIELLDFLDCAESDKFCALSAEQQDQFPLQKVLKVAATEREFGNYLFRQNRFYDAKVRYKRALLLLRRRSAPPEEQHLVEAAKLPVLLNLSFTYLKLDRPTIALCYGEQALIIDQKNAKALFRCGQACLLLTEYQKARDFLVRAQKEQPFNHDINNELKKLASCYRDYVDKEKEMWHRMFAPCGDGSTAGES
partner: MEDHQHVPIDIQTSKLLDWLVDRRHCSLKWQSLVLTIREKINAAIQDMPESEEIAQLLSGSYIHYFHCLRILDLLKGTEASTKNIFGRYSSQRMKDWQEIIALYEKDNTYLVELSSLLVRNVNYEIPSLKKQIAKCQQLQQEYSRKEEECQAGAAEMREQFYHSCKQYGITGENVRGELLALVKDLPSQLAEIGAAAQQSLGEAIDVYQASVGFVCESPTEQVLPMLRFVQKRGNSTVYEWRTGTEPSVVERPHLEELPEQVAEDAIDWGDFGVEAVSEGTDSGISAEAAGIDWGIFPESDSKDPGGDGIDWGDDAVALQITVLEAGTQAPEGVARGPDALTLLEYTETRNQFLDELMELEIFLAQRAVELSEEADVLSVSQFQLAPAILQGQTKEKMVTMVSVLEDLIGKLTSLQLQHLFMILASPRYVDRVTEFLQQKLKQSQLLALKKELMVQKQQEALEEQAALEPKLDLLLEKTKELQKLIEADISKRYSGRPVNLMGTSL
B3: Complement factor H-related protein 5 (Homo sapiens), Q9BXR6 (parent)
chain: MLLLFSVILISWVSTVGGEGTLCDFPKIHHGFLYDEEDYNPFSQVPTGEVFYYSCEYNFVSPSKSFWTRITCTEEGWSPTPKCLRMCSFPFVKNGHSESSGLIHLEGDTVQIICNTGYSLQNNEKNISCVERGWSTPPICSFTKGECHVPILEANVDAQPKKESYKVGDVLKFSCRKNLIRVGSDSVQCYQFGWSPNFPTCKGQVRSCGPPPQLSNGEVKEIRKEEYGHNEVVEYDCNPNFIINGPKKIQCVDGEWTTLPTCVEQVKTCGYIPELEYGYVQPSVPPYQHGVSVEVNCRNEYAMIGNNMITCINGIWTELPMCVATHQLKRCKIAGVNIKTLLKLSGKEFNHNSRIRYRCSDIFRYRHSVCINGKWNPEVDCTEKREQFCPPPPQIPNAQNMTTTVNYQDGEKVAVLCKENYLLPEAKEIVCKDGRWQSLPRCVESTAYCGPPPSINNGDTTSFPLSVYPPGSTVTYRCQSFYKLQGSVTVTCRNKQWSEPPRCLDPCVVSEENMNKNNIQLKWRNDGKLYAKTGDAVEFQCKFPHKAMISSPPFRAICQEGKFEYPICE
partner: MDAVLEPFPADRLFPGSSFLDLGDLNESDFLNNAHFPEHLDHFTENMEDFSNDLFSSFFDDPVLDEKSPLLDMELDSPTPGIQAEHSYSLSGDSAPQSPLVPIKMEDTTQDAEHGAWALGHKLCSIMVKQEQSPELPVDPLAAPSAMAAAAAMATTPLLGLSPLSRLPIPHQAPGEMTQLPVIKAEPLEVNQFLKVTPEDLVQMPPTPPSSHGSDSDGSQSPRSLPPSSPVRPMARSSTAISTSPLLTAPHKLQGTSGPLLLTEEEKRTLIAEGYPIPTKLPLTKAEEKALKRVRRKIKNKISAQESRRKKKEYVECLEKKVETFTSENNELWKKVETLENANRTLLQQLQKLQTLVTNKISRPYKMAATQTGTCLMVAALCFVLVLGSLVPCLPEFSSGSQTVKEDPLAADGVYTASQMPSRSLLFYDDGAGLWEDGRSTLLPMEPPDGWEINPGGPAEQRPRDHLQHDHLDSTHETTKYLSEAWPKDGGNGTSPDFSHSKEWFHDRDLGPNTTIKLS
B4: Adenosylhomocysteinase (Homo sapiens), P23526 (parent)
chain: MSDKLPYKVADIGLAAWGRKALDIAENEMPGLMRMRERYSASKPLKGARIAGCLHMTVETAVLIETLVTLGAEVQWSSCNIFSTQDHAAAAIAKAGIPVYAWKGETDEEYLWCIEQTLYFKDGPLNMILDDGGDLTNLIHTKYPQLLPGIRGISEETTTGVHNLYKMMANGILKVPAINVNDSVTKSKFDNLYGCRESLIDGIKRATDVMIAGKVAVVAGYGDVGKGCAQALRGFGARVIITEIDPINALQAAMEGYEVTTMDEACQEGNIFVTTTGCIDIILGRHFEQMKDDAIVCNIGHFDVEIDVKWLNENAVEKVNIKPQVDRYRLKNGRRIILLAEGRLVNLGCAMGHPSFVMSNSFTNQVMAQIELWTHPDKYPVGVHFLPKKLDEAVAEAHLGKLNVKLTKLTEKQAQYLGMSCDGPFKPDHYRY
partner: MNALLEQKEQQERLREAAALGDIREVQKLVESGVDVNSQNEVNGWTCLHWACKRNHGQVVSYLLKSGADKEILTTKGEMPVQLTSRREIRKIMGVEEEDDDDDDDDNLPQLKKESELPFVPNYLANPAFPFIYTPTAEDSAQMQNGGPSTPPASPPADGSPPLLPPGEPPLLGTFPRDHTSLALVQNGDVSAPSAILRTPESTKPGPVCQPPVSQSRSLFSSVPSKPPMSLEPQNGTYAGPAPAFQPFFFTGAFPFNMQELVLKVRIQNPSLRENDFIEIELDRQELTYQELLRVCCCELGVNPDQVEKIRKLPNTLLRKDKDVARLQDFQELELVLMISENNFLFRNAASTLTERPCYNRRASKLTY

Variants of: B1
Conditions: with shlb2_human SH3GLB2, Q9NR46

| effect of a mutation on the interaction | Variant |
| --- | --- |
| with no effect | T508R |

Variants of: B2
Conditions: with ck5p3_human CDK5RAP3, Q96JB5

| effect of a mutation on the interaction | Variant |
| --- | --- |
| disrupting interaction strength | F72L |
| with no effect | R202H |

Variants of: B3
Conditions: with cr3l1_human CREB3L1, Q96BA8

| effect of a mutation on the interaction | Variant |
| --- | --- |
| with no effect | F192L |
| with no effect | K144N |
| with no effect | M514R |
| with no effect | R356H |
| with no effect | P46S |
| with no effect | G145E |

Variants of: B4
Conditions: with anr40_human ANKRD40, Q6AI12

| effect of a mutation on the interaction | Variant |
| --- | --- |
| disrupting interaction strength | A89V |
